According to the supplement of paper PMC9112550, “Optimization of the antimicrobial peptide Bac7 by deep mutational scanning” (BMC Biology, 2022):

system: Escherichia coli TOP10; test: shrunken log2 fold change of peptide-encoding DNA abundance (4.5 h post-induction vs induction); higher = less antimicrobial activity (less host growth inhibition); details: time post-induction: 4.5 h; library: site-saturation at positions 5, 18, 19, 20
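Further: peptides expressed intracellularly from a pBAD plasmid library in pooled LB shake-flask culture, induced with 0.3% L-arabinose, DNA abundance read by NGS, three biological replicates, DESeq2 with apeglm shrinkage.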

Sequence | shrunken log2 fold change
RRIRPRPPRLPRPRPRPVVSPRP | -0.0387
RRIRPRPPRLPRPRPRPVWEPRP | -0.126
RRIRPRPPRLPRPRPRPVYGPRP | -0.486
RRIRPRPPRLPRPRPRPVYMPRP | -1.1
RRIRPRPPRLPRPRPRPVYWPRP | -0.139
RRIRPRPPRLPRPRPRPWARPRP | 0.0379
RRIRPRPPRLPRPRPRPWASPRP | 0.0361
RRIRPRPPRLPRPRPRPWDRPRP | 0.0969
RRIRPRPPRLPRPRPRPWDVPRP | 0.308
RRIRPRPPRLPRPRPRPWEDPRP | 0.00408
RRIRPRPPRLPRPRPRPWERPRP | 0.0097
RRIRPRPPRLPRPRPRPWFSPRP | -0.255
RRIRPRPPRLPRPRPRPWFTPRP | -0.0465
RRIRPRPPRLPRPRPRPWGLPRP | 0.253
RRIRPRPPRLPRPRPRPWHDPRP | -0.112
RRIRPRPPRLPRPRPRPWIWPRP | -0.186
RRIRPRPPRLPRPRPRPWKQPRP | 0.0524
RRIRPRPPRLPRPRPRPWKVPRP | -0.0967
RRIRPRPPRLPRPRPRPWNEPRP | -0.138
RRIRPRPPRLPRPRPRPWPAPRP | 0.0589
RRIRPRPPRLPRPRPRPWPFPRP | 0.108
RRIRPRPPRLPRPRPRPWPIPRP | 0.054
RRIRPRPPRLPRPRPRPWQNPRP | -0.136
RRIRPRPPRLPRPRPRPWQRPRP | -0.0107
RRIRPRPPRLPRPRPRPWTEPRP | -0.204

Sequence | shrunken log2 fold change
RRIRPRPPRLPRPRPRPWTYPRP | -0.0785
RRIRPRPPRLPRPRPRPWWPPRP | 0.165
RRIRPRPPRLPRPRPRPWWSPRP | 0.361
RRIRPRPPRLPRPRPRPYAPPRP | -0.207
RRIRPRPPRLPRPRPRPYAQPRP | -0.478
RRIRPRPPRLPRPRPRPYCFPRP | -0.655
RRIRPRPPRLPRPRPRPYCRPRP | 0.0122
RRIRPRPPRLPRPRPRPYGAPRP | -0.306
RRIRPRPPRLPRPRPRPYHGPRP | 0.0397
RRIRPRPPRLPRPRPRPYIWPRP | -0.267
RRIRPRPPRLPRPRPRPYKNPRP | -0.775
RRIRPRPPRLPRPRPRPYLCPRP | -0.504
RRIRPRPPRLPRPRPRPYLVPRP | -0.203
RRIRPRPPRLPRPRPRPYPYPRP | -0.124
RRIRPRPPRLPRPRPRPYQHPRP | -0.592
RRIRPRPPRLPRPRPRPYQPPRP | -0.125
RRIRPRPPRLPRPRPRPYSIPRP | -0.0708
RRIRPRPPRLPRPRPRPYSMPRP | -1.43
RRIRPRPPRLPRPRPRPYTGPRP | -0.6
RRIRPRPPRLPRPRPRPYVWPRP | -0.365
RRIRPRPPRLPRPRPRPYWCPRP | -0.272
RRIRPRPPRLPRPRPRPYWPPRP | -0.143
RRIRPRPPRLPRPRPRPYYGPRP | -0.271
RRIRPRPPRLPRPRPRPYYSPRP | -0.246
RRIRQRPPRLPRPRPRPACDPRP | 0.0239

Sequence | shrunken log2 fold change
RRIRQRPPRLPRPRPRPACKPRP | -0.0465
RRIRQRPPRLPRPRPRPACPPRP | 0.0154
RRIRQRPPRLPRPRPRPACYPRP | -0.18
RRIRQRPPRLPRPRPRPADNPRP | -0.536
RRIRQRPPRLPRPRPRPAFRPRP | 0.204
RRIRQRPPRLPRPRPRPAFWPRP | 0.382
RRIRQRPPRLPRPRPRPAGLPRP | -0.158
RRIRQRPPRLPRPRPRPAIDPRP | 0.0942
RRIRQRPPRLPRPRPRPAKMPRP | -0.207
RRIRQRPPRLPRPRPRPALAPRP | 0.73
RRIRQRPPRLPRPRPRPALQPRP | 0.145
RRIRQRPPRLPRPRPRPAMMPRP | 0.00621
RRIRQRPPRLPRPRPRPAMNPRP | -0.115
RRIRQRPPRLPRPRPRPANFPRP | 0.0982
RRIRQRPPRLPRPRPRPANHPRP | -0.728
RRIRQRPPRLPRPRPRPAPHPRP | 0.343
RRIRQRPPRLPRPRPRPAQMPRP | -0.15
RRIRQRPPRLPRPRPRPARCPRP | 0.174
RRIRQRPPRLPRPRPRPARFPRP | 0.0469
RRIRQRPPRLPRPRPRPASGPRP | -0.00438
RRIRQRPPRLPRPRPRPAWIPRP | -0.0396
RRIRQRPPRLPRPRPRPAWPPRP | 0.303
RRIRQRPPRLPRPRPRPAYEPRP | -0.00926
RRIRQRPPRLPRPRPRPAYKPRP | -0.534
RRIRQRPPRLPRPRPRPCDLPRP | -0.265

Sequence | shrunken log2 fold change
RRIRQRPPRLPRPRPRPCDMPRP | -0.129
RRIRQRPPRLPRPRPRPCDYPRP | 0.07
RRIRQRPPRLPRPRPRPCFAPRP | 0.0874
RRIRQRPPRLPRPRPRPCFIPRP | -0.353
RRIRQRPPRLPRPRPRPCGYPRP | -0.0698
RRIRQRPPRLPRPRPRPCHIPRP | -0.0316
RRIRQRPPRLPRPRPRPCHRPRP | 0.0197
RRIRQRPPRLPRPRPRPCHYPRP | -0.000921
RRIRQRPPRLPRPRPRPCLFPRP | -0.268
RRIRQRPPRLPRPRPRPCLPPRP | -0.186
RRIRQRPPRLPRPRPRPCMTPRP | 0.0109
RRIRQRPPRLPRPRPRPCMWPRP | -0.148
RRIRQRPPRLPRPRPRPCPAPRP | -0.00924
RRIRQRPPRLPRPRPRPCPKPRP | 4.03
RRIRQRPPRLPRPRPRPCPLPRP | -0.0641
RRIRQRPPRLPRPRPRPCPQPRP | -0.153
RRIRQRPPRLPRPRPRPCPTPRP | -0.13
RRIRQRPPRLPRPRPRPCRCPRP | -0.0134
RRIRQRPPRLPRPRPRPCRKPRP | 0.0642
RRIRQRPPRLPRPRPRPCTFPRP | -0.121
RRIRQRPPRLPRPRPRPCWWPRP | 0.0676
RRIRQRPPRLPRPRPRPCYKPRP | -0.271
RRIRQRPPRLPRPRPRPDAIPRP | 0.0472
RRIRQRPPRLPRPRPRPDCVPRP | -0.0384
RRIRQRPPRLPRPRPRPDERPRP | -0.00664

Sequence | shrunken log2 fold change
RRIRQRPPRLPRPRPRPDEYPRP | 0.0131
RRIRQRPPRLPRPRPRPDFQPRP | -0.0253
RRIRQRPPRLPRPRPRPDGAPRP | 0.0271
RRIRQRPPRLPRPRPRPDGIPRP | 0.087
RRIRQRPPRLPRPRPRPDLHPRP | 0.00152
RRIRQRPPRLPRPRPRPDLPPRP | -0.134
RRIRQRPPRLPRPRPRPDMNPRP | -0.654
RRIRQRPPRLPRPRPRPDMWPRP | 0.0275
RRIRQRPPRLPRPRPRPDNLPRP | -0.348
RRIRQRPPRLPRPRPRPDPPPRP | 0.316
RRIRQRPPRLPRPRPRPDPQPRP | -0.159
RRIRQRPPRLPRPRPRPDQGPRP | -0.0223
RRIRQRPPRLPRPRPRPDRIPRP | -0.185
RRIRQRPPRLPRPRPRPDRVPRP | 0.00438
RRIRQRPPRLPRPRPRPDSPPRP | 0.0174
RRIRQRPPRLPRPRPRPDTPPRP | -0.039
RRIRQRPPRLPRPRPRPDTQPRP | -0.401
RRIRQRPPRLPRPRPRPDVSPRP | 0.0409
RRIRQRPPRLPRPRPRPDWKPRP | 0.0112
RRIRQRPPRLPRPRPRPDWPPRP | 0.416
RRIRQRPPRLPRPRPRPEACPRP | -0.000521
RRIRQRPPRLPRPRPRPEADPRP | 0.138
RRIRQRPPRLPRPRPRPECAPRP | 0.407
RRIRQRPPRLPRPRPRPECNPRP | 0.062
RRIRQRPPRLPRPRPRPECYPRP | 0.0583

Sequence | shrunken log2 fold change
RRIRQRPPRLPRPRPRPEDKPRP | 0.0591
RRIRQRPPRLPRPRPRPEDLPRP | 0.125
RRIRQRPPRLPRPRPRPEGTPRP | 0.231
RRIRQRPPRLPRPRPRPEHDPRP | -0.0684
RRIRQRPPRLPRPRPRPEHPPRP | 0.0713
RRIRQRPPRLPRPRPRPEHSPRP | -0.0123
RRIRQRPPRLPRPRPRPEIEPRP | -0.00695
RRIRQRPPRLPRPRPRPEKPPRP | -0.129
RRIRQRPPRLPRPRPRPELSPRP | -0.00478
RRIRQRPPRLPRPRPRPENQPRP | 0.128
RRIRQRPPRLPRPRPRPENVPRP | -0.0767
RRIRQRPPRLPRPRPRPEPDPRP | 0.271
RRIRQRPPRLPRPRPRPEPTPRP | 0.877
RRIRQRPPRLPRPRPRPERFPRP | -0.0441
RRIRQRPPRLPRPRPRPERVPRP | 0.0836
RRIRQRPPRLPRPRPRPETLPRP | -0.0597
RRIRQRPPRLPRPRPRPEWDPRP | 0.0586
RRIRQRPPRLPRPRPRPEYMPRP | -0.0613
RRIRQRPPRLPRPRPRPFAGPRP | 0.0242
RRIRQRPPRLPRPRPRPFAWPRP | -0.0355
RRIRQRPPRLPRPRPRPFCHPRP | 0.00489
RRIRQRPPRLPRPRPRPFFKPRP | -0.132
RRIRQRPPRLPRPRPRPFGLPRP | -0.131
RRIRQRPPRLPRPRPRPFGPPRP | 0.0675
RRIRQRPPRLPRPRPRPFHEPRP | -0.0703
